This note sets out measurements from the supplement of paper PMC9112550, “Optimization of the antimicrobial peptide Bac7 by deep mutational scanning” (BMC Biology, 2022).

The subject of this series is Escherichia coli TOP10. The series is described as follows: shrunken log2 fold change of peptide-encoding DNA abundance (4.5 h post-induction vs induction); higher = less antimicrobial activity (less host growth inhibition). To be noted: time post-induction: 4.5 h; library: site-saturation at positions 5, 18, 19, 20.
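Note: peptides expressed intracellularly from a pBAD plasmid library in pooled LB shake-flask culture, induced with 0.3% L-arabinose, DNA abundance read by NGS, three biological replicates, DESeq2 with apeglm shrinkage.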

Take RRIRHRPPRLPRPRPRPPEPPRP: the “shrunken log2 fold change” value came out at 0.113.

Regarding RRIRTRPPRLPRPRPRPEVVPRP, the “shrunken log2 fold change” value is 0.292.

For RRIRARPPRLPRPRPRPLEQPRP, the “shrunken log2 fold change” value turned out to be 0.156.

In the case of RRIRARPPRLPRPRPRPACRPRP, the “shrunken log2 fold change” value stood at 0.896.

In the case of RRIRSRPPRLPRPRPRPGPLPRP, the “shrunken log2 fold change” value came to 0.292.

As to RRIRSRPPRLPRPRPRPEKGPRP, the “shrunken log2 fold change” value is 0.0255.

Consider RRIRERPPRLPRPRPRPNTWPRP, for which the “shrunken log2 fold change” value is 0.0226.

Turning to RRIRDRPPRLPRPRPRPFSLPRP, the “shrunken log2 fold change” value was -0.176.

As for RRIRARPPRLPRPRPRPWQVPRP, the “shrunken log2 fold change” value was determined as 0.191.

Regarding RRIRRRPPRLPRPRPRPQSRPRP, the “shrunken log2 fold change” value was 0.00841.

On to RRIRNRPPRLPRPRPRPIKWPRP, for which the “shrunken log2 fold change” value is -0.498.

On to RRIRVRPPRLPRPRPRPHPCPRP, for which the “shrunken log2 fold change” value was found to be 0.106.

RRIRARPPRLPRPRPRPYIAPRP: the “shrunken log2 fold change” value is -0.438.

In the case of RRIRWRPPRLPRPRPRPCRLPRP, the “shrunken log2 fold change” value is 0.0377.

With RRIRLRPPRLPRPRPRPVTQPRP, the “shrunken log2 fold change” value was -0.323.

On to RRIRYRPPRLPRPRPRPNVYPRP, for which the “shrunken log2 fold change” value is -1.2.

Turning to RRIRERPPRLPRPRPRPGQAPRP, the “shrunken log2 fold change” value was -0.00166.

For RRIRARPPRLPRPRPRPAWGPRP, the “shrunken log2 fold change” value turned out to be 0.616.

As to RRIRERPPRLPRPRPRPHFEPRP, the “shrunken log2 fold change” value was -0.211.

For the sequence RRIRTRPPRLPRPRPRPVLAPRP, the “shrunken log2 fold change” value came out at 0.479.

Turning to RRIRCRPPRLPRPRPRPDNSPRP, the “shrunken log2 fold change” value is -0.53.

For RRIRVRPPRLPRPRPRPMSCPRP, the “shrunken log2 fold change” value was determined as 0.0534.

Take RRIRMRPPRLPRPRPRPMSPPRP: the “shrunken log2 fold change” value turned out to be 0.00473.

In the case of RRIRRRPPRLPRPRPRPNAEPRP, the “shrunken log2 fold change” value was determined as 0.0193.

As for RRIRTRPPRLPRPRPRPVVPPRP, the “shrunken log2 fold change” value was -0.314.

As for RRIRERPPRLPRPRPRPWLTPRP, the “shrunken log2 fold change” value was -0.0528.

Regarding RRIRYRPPRLPRPRPRPYMYPRP, the “shrunken log2 fold change” value is -0.23.

For RRIRFRPPRLPRPRPRPFAQPRP, the “shrunken log2 fold change” value was -0.263.

Take RRIRGRPPRLPRPRPRPRKYPRP: the “shrunken log2 fold change” value is 0.0397.

For RRIRIRPPRLPRPRPRPKICPRP, the “shrunken log2 fold change” value is -0.883.

For the sequence RRIRARPPRLPRPRPRPMWEPRP, the “shrunken log2 fold change” value was -0.000921.

In the case of RRIRNRPPRLPRPRPRPYMVPRP, the “shrunken log2 fold change” value was -0.107.

Regarding RRIRMRPPRLPRPRPRPFYQPRP, the “shrunken log2 fold change” value was -0.297.

RRIRVRPPRLPRPRPRPSKYPRP: the “shrunken log2 fold change” value is -0.783.

Consider RRIRNRPPRLPRPRPRPGTVPRP, for which the “shrunken log2 fold change” value is -0.31.

On to RRIRARPPRLPRPRPRPCEPPRP, for which the “shrunken log2 fold change” value worked out at 0.39.

Regarding RRIRGRPPRLPRPRPRPRWCPRP, the “shrunken log2 fold change” value was 0.351.

On to RRIRNRPPRLPRPRPRPLPMPRP, for which the “shrunken log2 fold change” value is -0.14.

Regarding RRIRVRPPRLPRPRPRPYWLPRP, the “shrunken log2 fold change” value is -0.411.

Turning to RRIRSRPPRLPRPRPRPYSFPRP, the “shrunken log2 fold change” value is -0.795.

Take RRIRGRPPRLPRPRPRPEICPRP: the “shrunken log2 fold change” value was 1.73.

RRIRARPPRLPRPRPRPHEAPRP: the “shrunken log2 fold change” value was -0.0395.

Take RRIRSRPPRLPRPRPRPPRLPRP: the “shrunken log2 fold change” value was determined as 0.322.

Take RRIRRRPPRLPRPRPRPPDCPRP: the “shrunken log2 fold change” value stood at 0.326.

As to RRIRTRPPRLPRPRPRPKRAPRP, the “shrunken log2 fold change” value is 0.273.

In the case of RRIRRRPPRLPRPRPRPQSIPRP, the “shrunken log2 fold change” value is -0.0196.

Turning to RRIRDRPPRLPRPRPRPMHMPRP, the “shrunken log2 fold change” value is -0.0583.

For RRIRWRPPRLPRPRPRPMSSPRP, the “shrunken log2 fold change” value came out at 0.0453.

For the sequence RRIRARPPRLPRPRPRPWWDPRP, the “shrunken log2 fold change” value was -0.101.

RRIRCRPPRLPRPRPRPHIEPRP: the “shrunken log2 fold change” value was -0.856.

Turning to RRIRWRPPRLPRPRPRPCSGPRP, the “shrunken log2 fold change” value was -0.0411.

For the sequence RRIRSRPPRLPRPRPRPSGTPRP, the “shrunken log2 fold change” value was -0.494.

For RRIRYRPPRLPRPRPRPIEDPRP, the “shrunken log2 fold change” value is -0.274.

On to RRIRLRPPRLPRPRPRPGSQPRP, for which the “shrunken log2 fold change” value was found to be 0.0681.

For the sequence RRIRPRPPRLPRPRPRPQEGPRP, the “shrunken log2 fold change” value was -0.259.

RRIRIRPPRLPRPRPRPTANPRP: the “shrunken log2 fold change” value is -0.149.

Consider RRIRLRPPRLPRPRPRPYQTPRP, for which the “shrunken log2 fold change” value was found to be 0.0345.

For the sequence RRIRHRPPRLPRPRPRPMCWPRP, the “shrunken log2 fold change” value was -0.178.

Consider RRIRSRPPRLPRPRPRPVKRPRP, for which the “shrunken log2 fold change” value was 0.26.

For the sequence RRIRNRPPRLPRPRPRPVLDPRP, the “shrunken log2 fold change” value is -0.299.

As to RRIRIRPPRLPRPRPRPSNTPRP, the “shrunken log2 fold change” value is -0.515.

Turning to RRIRLRPPRLPRPRPRPYMLPRP, the “shrunken log2 fold change” value is -1.2.

For the sequence RRIRTRPPRLPRPRPRPVSAPRP, the “shrunken log2 fold change” value was 0.252.

In the case of RRIRIRPPRLPRPRPRPSRVPRP, the “shrunken log2 fold change” value was -0.0608.

Take RRIRRRPPRLPRPRPRPNYQPRP: the “shrunken log2 fold change” value is -0.263.

Regarding RRIRKRPPRLPRPRPRPLLGPRP, the “shrunken log2 fold change” value was 0.628.

Take RRIRFRPPRLPRPRPRPWWAPRP: the “shrunken log2 fold change” value was -0.377.

As to RRIRDRPPRLPRPRPRPVHRPRP, the “shrunken log2 fold change” value worked out at 0.0594.

As to RRIRCRPPRLPRPRPRPRCGPRP, the “shrunken log2 fold change” value is 0.191.

With RRIRIRPPRLPRPRPRPVKGPRP, the “shrunken log2 fold change” value is -0.0688.

For the sequence RRIRKRPPRLPRPRPRPSFYPRP, the “shrunken log2 fold change” value was -0.391.

On to RRIRTRPPRLPRPRPRPVEKPRP, for which the “shrunken log2 fold change” value is -0.016.

On to RRIRQRPPRLPRPRPRPRQPPRP, for which the “shrunken log2 fold change” value amounted to 0.622.

As for RRIRTRPPRLPRPRPRPDKNPRP, the “shrunken log2 fold change” value is -0.143.

Take RRIRSRPPRLPRPRPRPFAMPRP: the “shrunken log2 fold change” value was -0.0258.

As to RRIRVRPPRLPRPRPRPKLAPRP, the “shrunken log2 fold change” value stood at 0.274.

With RRIRDRPPRLPRPRPRPREEPRP, the “shrunken log2 fold change” value was determined as 1.27.

Turning to RRIRVRPPRLPRPRPRPDWTPRP, the “shrunken log2 fold change” value was 0.00219.

In the case of RRIRHRPPRLPRPRPRPYMGPRP, the “shrunken log2 fold change” value is -0.201.

For RRIRPRPPRLPRPRPRPIYIPRP, the “shrunken log2 fold change” value was -0.36.

For RRIRKRPPRLPRPRPRPWQVPRP, the “shrunken log2 fold change” value was -0.0062.

In the case of RRIRARPPRLPRPRPRPMNAPRP, the “shrunken log2 fold change” value is 0.376.

On to RRIRERPPRLPRPRPRPDYVPRP, for which the “shrunken log2 fold change” value is -0.00136.

For the sequence RRIRSRPPRLPRPRPRPVEVPRP, the “shrunken log2 fold change” value came to 0.233.

Regarding RRIRTRPPRLPRPRPRPRDMPRP, the “shrunken log2 fold change” value is 0.161.

On to RRIRKRPPRLPRPRPRPLYIPRP, for which the “shrunken log2 fold change” value is -0.329.

For the sequence RRIRRRPPRLPRPRPRPIFMPRP, the “shrunken log2 fold change” value was determined as 0.294.

Regarding RRIRARPPRLPRPRPRPDWCPRP, the “shrunken log2 fold change” value amounted to 0.0911.

As to RRIRERPPRLPRPRPRPSHRPRP, the “shrunken log2 fold change” value was -0.0834.

RRIRYRPPRLPRPRPRPCYHPRP: the “shrunken log2 fold change” value was -0.289.

RRIRARPPRLPRPRPRPPGIPRP: the “shrunken log2 fold change” value was determined as 0.331.

For RRIRTRPPRLPRPRPRPWDRPRP, the “shrunken log2 fold change” value was -0.105.

Take RRIRARPPRLPRPRPRPRVGPRP: the “shrunken log2 fold change” value is 0.352.

As for RRIRYRPPRLPRPRPRPSSNPRP, the “shrunken log2 fold change” value was -0.634.

RRIRDRPPRLPRPRPRPVSKPRP: the “shrunken log2 fold change” value was 0.0275.

As to RRIRQRPPRLPRPRPRPDKQPRP, the “shrunken log2 fold change” value was found to be 0.0312.

Take RRIRTRPPRLPRPRPRPDHVPRP: the “shrunken log2 fold change” value was -0.0634.

Take RRIRARPPRLPRPRPRPQFCPRP: the “shrunken log2 fold change” value is -0.0724.

In the case of RRIRFRPPRLPRPRPRPIVNPRP, the “shrunken log2 fold change” value came to 0.00221.

For the sequence RRIRFRPPRLPRPRPRPDNIPRP, the “shrunken log2 fold change” value was -0.269.

For the sequence RRIRHRPPRLPRPRPRPRKKPRP, the “shrunken log2 fold change” value is -0.0239.

With RRIRMRPPRLPRPRPRPPMEPRP, the “shrunken log2 fold change” value amounted to 0.696.

In the case of RRIRYRPPRLPRPRPRPLKGPRP, the “shrunken log2 fold change” value was -0.00142.

For RRIRPRPPRLPRPRPRPVPCPRP, the “shrunken log2 fold change” value was 0.0816.

Turning to RRIRARPPRLPRPRPRPWGCPRP, the “shrunken log2 fold change” value amounted to 0.211.

With RRIRARPPRLPRPRPRPVGVPRP, the “shrunken log2 fold change” value came out at 0.528.

On to RRIRTRPPRLPRPRPRPRHWPRP, for which the “shrunken log2 fold change” value amounted to 0.0182.

For the sequence RRIRFRPPRLPRPRPRPSANPRP, the “shrunken log2 fold change” value was -0.395.

As to RRIRYRPPRLPRPRPRPCNWPRP, the “shrunken log2 fold change” value was -0.0748.

In the case of RRIRFRPPRLPRPRPRPKGPPRP, the “shrunken log2 fold change” value stood at 0.0269.

As for RRIRCRPPRLPRPRPRPADQPRP, the “shrunken log2 fold change” value was -0.0916.

Take RRIRNRPPRLPRPRPRPKFRPRP: the “shrunken log2 fold change” value amounted to 0.00344.

With RRIRKRPPRLPRPRPRPANLPRP, the “shrunken log2 fold change” value amounted to 0.299.

As for RRIRARPPRLPRPRPRPADRPRP, the “shrunken log2 fold change” value was determined as 0.256.

Turning to RRIRDRPPRLPRPRPRPHGIPRP, the “shrunken log2 fold change” value is -0.265.

With RRIRQRPPRLPRPRPRPWWTPRP, the “shrunken log2 fold change” value was -0.01.

RRIRCRPPRLPRPRPRPYLKPRP: the “shrunken log2 fold change” value is -1.1.

Consider RRIRSRPPRLPRPRPRPDGSPRP, for which the “shrunken log2 fold change” value is -0.0196.

Consider RRIRIRPPRLPRPRPRPTSIPRP, for which the “shrunken log2 fold change” value is -0.182.

RRIRDRPPRLPRPRPRPRLLPRP: the “shrunken log2 fold change” value came out at 0.146.

RRIRDRPPRLPRPRPRPRHDPRP: the “shrunken log2 fold change” value was 0.0894.

With RRIRFRPPRLPRPRPRPFARPRP, the “shrunken log2 fold change” value is -0.115.

For RRIRCRPPRLPRPRPRPCKRPRP, the “shrunken log2 fold change” value was -0.115.

As for RRIRQRPPRLPRPRPRPNADPRP, the “shrunken log2 fold change” value turned out to be 0.00101.

RRIRRRPPRLPRPRPRPNSQPRP: the “shrunken log2 fold change” value is -0.154.
